From US20230383012A1 (Xencor, published 2023)

B1: XENP39368 (bispecific antibody)
heavy: EVQLLESGGGLVQPGGSLRLSCAASGFTFSSYDMSWVRQAPGKRLEWVSTISSGGSFTHYPDSVKGRFTISRDNSKNTLYLQMNSLRAEDTAVYYCARRSLDWYFDVWGAGTTVTVSSASTKGPSVFPLAPSSKSTSGGTAALGCLVKDYFPEPVTVSWNSGALTSGVHTFPAVLQSSGLYSLSSVVTVPSSSLGTQTYICNVNHKPSDTKVDKKVEPKSCDKTHTCPPCPAPPVAGPSVFLFPPKPKDTLMISRTPEVTCVVVDVKHEDPEVKFNWYVDGVEVHNAKTKPREEEYNSTYRVVSVLTVLHQDWLNGKEYKCKVSNKALPAPIEKTISKAKGQPREPQVYTLPPSREEMTKNQVSLTCDVSGFYPSDIAVEWESDGQPENNYKTTPPVLDSDGSFFLYSKLTVDKSRWEQGDVFSCSVMHEALHNHYTQKSLSLSPGK
scFv-Fc: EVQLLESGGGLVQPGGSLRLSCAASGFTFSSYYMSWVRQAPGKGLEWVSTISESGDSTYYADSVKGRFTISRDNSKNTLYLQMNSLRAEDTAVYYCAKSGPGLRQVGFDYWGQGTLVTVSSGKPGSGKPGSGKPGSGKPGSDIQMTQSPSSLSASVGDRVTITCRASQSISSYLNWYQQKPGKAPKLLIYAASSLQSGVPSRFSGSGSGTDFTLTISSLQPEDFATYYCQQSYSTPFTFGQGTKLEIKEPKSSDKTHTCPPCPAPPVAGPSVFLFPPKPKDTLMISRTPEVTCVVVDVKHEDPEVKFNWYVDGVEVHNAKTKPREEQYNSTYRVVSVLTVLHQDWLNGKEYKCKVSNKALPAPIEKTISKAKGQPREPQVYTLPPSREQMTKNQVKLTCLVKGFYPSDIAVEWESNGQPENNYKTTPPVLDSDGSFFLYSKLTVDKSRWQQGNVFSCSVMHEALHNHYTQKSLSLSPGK
light: EIVLTQSPGTLSLSPGERATLSCRVSSSIQSTNLHWYQQKPGQSPRPLIYGTSVLATGVPVRFSGSGSGTDYTLTISRLEPEDFAVYYCQQWSSYPLYTFGGGTKVEIKRTVAAPSVFIFPPSDEQLKSGTASVVCLLNNFYPREAKVQWKVDNALQSGNSQESVTEQDSKDSTYSLSSTLTLSKADYEKHKVYACEVTHQGLSSPVTKSFNRGEC
B2: XENP39365 (bispecific antibody)
heavy: EVQLLESGGGLVQPGGSLRLSCAASGFTFSSYDMSWVRQAPGKRLEWVSTISSGGSFTHYPDSVKGRFTISRDNSKNTLYLQMNSLRAEDTAVYYCARRSLDWYFDVWGAGTTVTVSSASTKGPSVFPLAPSSKSTSGGTAALGCLVKDYFPEPVTVSWNSGALTSGVHTFPAVLQSSGLYSLSSVVTVPSSSLGTQTYICNVNHKPSDTKVDKKVEPKSCDKTHTCPPCPAPPVAGPSVFLFPPKPKDTLMISRTPEVTCVVVDVKHEDPEVKFNWYVDGVEVHNAKTKPREEEYNSTYRVVSVLTVLHQDWLNGKEYKCKVSNKALPAPIEKTISKAKGQPREPQVYTLPPSREEMTKNQVSLTCDVSGFYPSDIAVEWESDGQPENNYKTTPPVLDSDGSFFLYSKLTVDKSRWEQGDVFSCSVMHEALHNHYTQKSLSLSPGK
scFv-Fc: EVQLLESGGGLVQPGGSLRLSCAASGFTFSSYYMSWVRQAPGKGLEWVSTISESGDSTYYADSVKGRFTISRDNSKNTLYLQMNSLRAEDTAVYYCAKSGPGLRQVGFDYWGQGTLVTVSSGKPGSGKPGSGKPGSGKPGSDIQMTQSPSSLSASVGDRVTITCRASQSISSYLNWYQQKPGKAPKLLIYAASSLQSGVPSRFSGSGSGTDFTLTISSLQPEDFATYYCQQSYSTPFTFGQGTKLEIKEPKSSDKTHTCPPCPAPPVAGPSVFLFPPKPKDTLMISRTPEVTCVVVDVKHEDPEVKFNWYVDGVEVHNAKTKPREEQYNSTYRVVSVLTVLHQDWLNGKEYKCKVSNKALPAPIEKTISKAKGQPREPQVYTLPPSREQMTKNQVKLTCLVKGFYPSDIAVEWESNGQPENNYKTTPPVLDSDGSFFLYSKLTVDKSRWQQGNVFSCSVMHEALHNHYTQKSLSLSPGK
light: EIVLTQSPGTLSLSPGERATLSCRVSLSIQSSNLHWYQQKPGQSPRPLIYGTNLLASGVPVRFSGSGSGTDYTLTISRLEPEDFAVYYCQQWSSYPLYTFGGGTKVEIKRTVAAPSVFIFPPSDEQLKSGTASVVCLLNNFYPREAKVQWKVDNALQSGNSQESVTEQDSKDSTYSLSSTLTLSKADYEKHKVYACEVTHQGLSSPVTKSFNRGEC

Biological target: T1, human PDL1 (human, UniProt Q9NZQ7 19-238)
T1 construct: his-tagged in the Carterra assay; also called PDL1 antigen
Experiment: descriptor in the SEB-stimulated PBMC example

Binder	binding result
B1	binds
B2	binds
